Test results published in IntAct's records for PubMed 10633111.

B1: Protein virB8 (Agrobacterium tumefaciens (strain C58 / ATCC 33970)), P17798 (parent)
chain: MKGSEYALLVARETLAEHYKEVEAFQTARAKSARRLSKVIAAVATIAVLGNVAQAFTIATMVPLIRLVPVYLWIRPDGTVDSEVSVSRLPATQEEAVVNASLWEYVRLRESYDADTAQYAYDLVSNFSAPMVRQNYQQFFNYPNPTSPQVILGKHGRLEVEHIASNDVTPGVQQIRYKRTLIVDGKMPMASTWTATVRYEKVTSLPGRLRLTNPGGLVVTSYQTSEDTVSNAGHSEP
partner: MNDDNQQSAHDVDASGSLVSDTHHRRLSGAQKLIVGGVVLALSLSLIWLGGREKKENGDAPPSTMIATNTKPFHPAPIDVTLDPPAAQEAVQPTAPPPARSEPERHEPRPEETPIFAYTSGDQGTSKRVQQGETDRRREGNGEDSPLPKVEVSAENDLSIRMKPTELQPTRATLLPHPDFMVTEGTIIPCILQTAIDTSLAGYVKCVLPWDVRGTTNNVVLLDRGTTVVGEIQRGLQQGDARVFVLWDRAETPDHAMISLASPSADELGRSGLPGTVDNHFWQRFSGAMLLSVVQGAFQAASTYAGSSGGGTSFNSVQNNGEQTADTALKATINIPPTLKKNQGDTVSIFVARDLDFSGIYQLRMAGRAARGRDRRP
B2: Protein virB8 (Agrobacterium tumefaciens (strain C58 / ATCC 33970)), P17798 (parent)
chain: B1 chain
partner: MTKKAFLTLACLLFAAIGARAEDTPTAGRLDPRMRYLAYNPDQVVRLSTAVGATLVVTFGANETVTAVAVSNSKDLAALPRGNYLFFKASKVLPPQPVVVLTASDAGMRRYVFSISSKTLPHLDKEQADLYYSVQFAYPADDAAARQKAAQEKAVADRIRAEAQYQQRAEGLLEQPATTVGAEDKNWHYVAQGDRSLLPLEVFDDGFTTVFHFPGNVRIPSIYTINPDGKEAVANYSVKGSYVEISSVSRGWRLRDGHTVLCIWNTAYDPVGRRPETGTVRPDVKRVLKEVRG

Variants of: B1
Details: with virba_agrfc virB10, P17800
MKGSEYALLVARETLAEHYKEVEAFQTARAKSARRLSKVIAAVATIAVLGNVAQAFTIATMVPLIRLVPVYLWIRPDGTVDSEVSVLRLPATQEEAVVNASLWEYVRLRESYDADTAQYAYDLVSNFSAPMVRQNYQQFFNYPNPTSPQVILGKHGRLEVEHIASNDVTPGVQQIRYKRTLIVDGKMPMASTWTATVRYEKVTSLPGRLRLTNPGGLVVTSYQTSEDTVSNAGHSEP [S87L] was tested, and the “effect of a mutation on the interaction” value was “decreasing interaction”.

Variants of: B2
Details: with virb9_agrfc virB9, P17799
In the case of MKGSEYALLVARETLAEHYKEVEAFQTARAKSARRLSKVIAAVATIAVLGNVAQAFTIATMVPLIRLVPVYLWIRPDGTVDSEVSVLRLPATQEEAVVNASLWEYVRLRESYDADTAQYAYDLVSNFSAPMVRQNYQQFFNYPNPTSPQVILGKHGRLEVEHIASNDVTPGVQQIRYKRTLIVDGKMPMASTWTATVRYEKVTSLPGRLRLTNPGGLVVTSYQTSEDTVSNAGHSEP [S87L], the “effect of a mutation on the interaction” value is reported as “disrupting interaction”.
